Results from article PMC11320721 (Nature structural & molecular biology, 2024).
No end group written: not given here. Me3 = trimethyl (lysine)

Tests used:
[1] = target: T1, PZP domain of JADE1 (JADE1PZP), wild type (human, UniProt Q6IE81 201-373); assay: other fluorescence titration
E215K mutant of JADE1PZP = E215K mutant of JADE1PZP (human, UniProt Q6IE81 201-373, E215K); assay: other fluorescence titration
[2] = target: T1, PZP domain of JADE1 (JADE1PZP), wild …; assay: NMR titration

T1 sequence (Q6IE81 201-373): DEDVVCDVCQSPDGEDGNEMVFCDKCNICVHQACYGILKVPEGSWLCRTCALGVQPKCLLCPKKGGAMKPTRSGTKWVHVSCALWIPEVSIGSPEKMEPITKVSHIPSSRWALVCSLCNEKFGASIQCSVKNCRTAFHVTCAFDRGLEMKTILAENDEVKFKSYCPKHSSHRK
Sequence of E215K mutant of JADE1PZP (Q6IE81 201-373 E215K): as the sequence (Q6IE81 201-373) above, with E15K counted along it

ARTKQTARKSTG (peptide, UniProt P68431 2-13, looked up) [H3_(1–12) peptide (residues 1–12 of H3)]
Kd [1]: 0.9 µM
fold decrease in binding affinity against wild type JADE1PZP (E215K mutant of JADE1PZP): 3 fold

ARTK(Me3)QTARKSTG (peptide, UniProt P68431 2-13, looked up) [H3K4me3_(1–12) peptide]
Kd [2]: 3000 µM
